Here are results for four molecules from PMC8336524, “Yeast Bromodomain Factor 1 and Its Human Homolog TAF1 Play Conserved Roles in Promoting Homologous Recombination” (Advanced Science, 2021).

Experiment [1] concerns the target acetylated H4 peptide (1–22 aa) (UniProt P02309). The experiment can be described thus: ITC; protein (≈50 µM DBD or 2YF‐DBD, ≈20 µM TAF1‐DBD) titrated with H4 peptide (≈1 mM or 0.5 mM) at 25 °C; 100 mM NaCl, 50 mM Tris‐HCl pH 7.5; 19 injections; One Set of Sites model.
Experiment [2] has as its target T1, 6xHis‐Rfa1 (yeast, UniProt P22336 1-621).
T1 construct: Rfa1, subunit of Replication Protein A (RPA), yeast; also called RPA (in the text on the truncations); source: E. coli (BL21), pET30a(+)
Description: pull-down; GST or GST fusion proteins immobilized on GSH‐sepharose beads, incubated with His‐tagged proteins at 4 °C for 4 h; wash 20 mM Tris–HCl pH 7.4, 200 mM NaCl, 0.5 mM EDTA; Western blot with anti‐His antibody. The conditions noted are these: both partners purified. A general note: Immunoblotting shows a protein as a band on a membrane.

T1 sequence (P22336 whole entry, the tested form may be a part): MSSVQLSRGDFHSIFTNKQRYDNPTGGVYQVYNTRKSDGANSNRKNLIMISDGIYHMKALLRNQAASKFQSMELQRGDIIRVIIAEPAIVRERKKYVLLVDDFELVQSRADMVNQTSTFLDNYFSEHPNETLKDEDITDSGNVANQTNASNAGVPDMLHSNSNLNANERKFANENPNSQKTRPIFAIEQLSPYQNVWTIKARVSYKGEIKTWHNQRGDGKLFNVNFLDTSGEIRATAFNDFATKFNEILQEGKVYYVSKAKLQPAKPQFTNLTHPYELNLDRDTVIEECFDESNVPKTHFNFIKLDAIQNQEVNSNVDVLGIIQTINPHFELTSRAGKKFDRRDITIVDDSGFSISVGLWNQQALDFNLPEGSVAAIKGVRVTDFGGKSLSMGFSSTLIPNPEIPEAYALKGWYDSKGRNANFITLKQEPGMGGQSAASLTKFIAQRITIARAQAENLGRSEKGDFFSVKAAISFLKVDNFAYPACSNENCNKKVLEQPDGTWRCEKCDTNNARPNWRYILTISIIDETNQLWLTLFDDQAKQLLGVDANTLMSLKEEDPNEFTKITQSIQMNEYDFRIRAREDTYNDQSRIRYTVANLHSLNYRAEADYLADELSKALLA

What is called Kd is the free concentration of one partner at which half of the binding sites on the other are occupied at equilibrium, for simple one-to-one binding. High values mean a looser complex, low ones a tighter complex. In the case of “DBD of Bdf1 used for ITC (domain or fragment)”, the dissociation constant (Kd) in experiment [1] worked out at 6 µM. In experiment [1], “TAF1‐DBD used for ITC (domain or fragment)” gave a Kd of 5 µM. This Kd and that of the molecule before are within 1.5-fold of each other.

B1: GST‐Bdf1 residues 1–317 (domain or fragment, yeast, UniProt P35817 1-317, looked up)
chain: MTDITPVQNDVDVNGNNVNDDVSSNLKRPIDQGDPSNGLAEEENPANNQLHLKKARLDGDALTSSPAGLAENGIEGATLAANGENGYNATGSGAEDEQQGLKKEEGGQGTKQEDLDENSKQELPMEVPKEPAPAPPPEPDMNNLPQNPIPKHQQKHALLAIKAVKRLKDARPFLQPVDPVKLDIPFYFNYIKRPMDLSTIERKLNVGAYEVPEQITEDFNLMVNNSIKFNGPNAGISQMARNIQASFEKHMLNMPAKDAPPVIAKGRRSSAQEDAPIVIRRAQTHNGRPKRTIHPPKSKDIYPYESKKPKSKRLQQA
notes: source: E. coli (BL21), pGEX4T3; immobilized onto GSH‐sepharose beads
Turning to B1, the binding result in experiment [2] was “binds”.

B2: GST‐Bdf1 residues 1–295 (domain or fragment, yeast, UniProt P35817 1-295, looked up)
chain: MTDITPVQNDVDVNGNNVNDDVSSNLKRPIDQGDPSNGLAEEENPANNQLHLKKARLDGDALTSSPAGLAENGIEGATLAANGENGYNATGSGAEDEQQGLKKEEGGQGTKQEDLDENSKQELPMEVPKEPAPAPPPEPDMNNLPQNPIPKHQQKHALLAIKAVKRLKDARPFLQPVDPVKLDIPFYFNYIKRPMDLSTIERKLNVGAYEVPEQITEDFNLMVNNSIKFNGPNAGISQMARNIQASFEKHMLNMPAKDAPPVIAKGRRSSAQEDAPIVIRRAQTHNGRPKRTIHP
notes: as for B1
Take B2: the binding result in experiment [2] was “binds”.
